According to article PMC9835395:

Target: albumin (on albumin-functionalized agarose resin) (UniProt P07724)
Test: pull-down; AF647-labelled eOD or amph-eOD incubated with albumin-functionalized agarose resin for 2 hours at 37°C; resin separated and protein remaining in solution measured

Chain of UniProt P07724 (P07724 25-608): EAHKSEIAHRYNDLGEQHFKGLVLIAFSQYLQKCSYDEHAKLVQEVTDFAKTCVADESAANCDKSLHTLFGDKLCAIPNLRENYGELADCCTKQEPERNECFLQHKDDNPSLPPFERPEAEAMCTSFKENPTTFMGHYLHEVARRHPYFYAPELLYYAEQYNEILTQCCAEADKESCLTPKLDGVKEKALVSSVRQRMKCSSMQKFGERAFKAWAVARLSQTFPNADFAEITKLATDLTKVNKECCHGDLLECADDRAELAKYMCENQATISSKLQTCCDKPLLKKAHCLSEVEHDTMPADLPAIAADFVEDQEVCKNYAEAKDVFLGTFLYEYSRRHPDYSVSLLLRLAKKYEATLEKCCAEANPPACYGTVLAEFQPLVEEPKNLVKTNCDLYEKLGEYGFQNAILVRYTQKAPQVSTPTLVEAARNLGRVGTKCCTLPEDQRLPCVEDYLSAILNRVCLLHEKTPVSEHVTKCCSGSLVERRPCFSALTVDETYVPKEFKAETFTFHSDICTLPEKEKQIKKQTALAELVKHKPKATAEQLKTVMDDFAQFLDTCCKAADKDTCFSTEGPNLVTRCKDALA

amph-eOD (eOD-GT8 with N-terminal cysteine and C-terminal PADRE, conjugated to PEG2K-DSPE)
percent of added protein bound to the resin: 60%
